Reference: the supplement of paper PMC10065799, “High-throughput profiling of sequence recognition by tyrosine kinases and SH2 domains using bacterial peptide display” (eLife, 2023)
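Throughout, for SH2 binding enrichment of the phosphorylated peptide, bacterial display: peptide library displayed on the E. coli surface as eCPX fusions, selected cells deep-sequenced, score is each peptide's frequency after selection divided by its frequency in the input.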
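Throughout, for phosphorylation enrichment, bacterial display: 11-residue human phosphosite peptides and single-mutation variants displayed on the E. coli surface, counted by deep sequencing, each peptide's frequency after selection divided by its frequency in the unselected input library; frequency after pTyr selection over input frequency; kinase dosed for 20-30% of maximal phosphorylation in three min.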

These sequences were tested on c-Src (assay: phosphorylation enrichment, bacterial display (enrichment ratio); higher = better substrate or ligand; peptides without Tyr show the background).
Sequence DFSLKYATDIP [APC_Y1183_YF] has a phosphorylation enrichment of 0.378.
In the case of LYSNAYLSDLA [ALDH1A1_Y119_N121S], the phosphorylation enrichment is reported as 1.96.
Work on IVAREYYSKAD [CAMK2B_Y107_E110K] yielded a phosphorylation enrichment of 0.525.
For GIATGYLVLKE [DNMT3B_Y588], the phosphorylation enrichment was 0.4.
For PLFRVYGLESL [INSR_Y94_L89P], the phosphorylation enrichment was 0.864.
In the case of KVPRHYDDPGK [FOXG1_Y246], the phosphorylation enrichment is reported as 0.505.
Work on EEEPVYEAEPE [HCLS1_Y360] yielded a phosphorylation enrichment of 0.851.
For NSNSDYVDVLP [SH2D1B_Y127], the phosphorylation enrichment was 0.598.
For DLAGRYFALKS [CKB_Y173_YF], the phosphorylation enrichment was 0.545.
Sequence GFQPEYGQPAG [SYP_Y278_D277E_YF] has a phosphorylation enrichment of 0.671.
Work on SESSYYKSLNL [NGEF_Y289_A286S] yielded a phosphorylation enrichment of 0.586.
For DYGSGYPNDPK [RNASEH2A_Y210], the phosphorylation enrichment was 0.575.
KLQKFYRQNPD [EHHADH_Y683_YF] gave a phosphorylation enrichment of 0.409.
SNSAAYSGSVA [PDLIM5_Y382_T381A] showed a phosphorylation enrichment of 0.409.
For RRIHNYRGHLW [VHL_Y112_S111N], the phosphorylation enrichment was 0.607.
Sequence PLQSEYSSIST [ITGB4_Y1760_T1764S] has a phosphorylation enrichment of 1.3.
Work on STEEQYRIRQV [EFHC1_Y115] yielded a phosphorylation enrichment of 0.331.
For SAAAIYTVRHP [PMP22_Y117], the phosphorylation enrichment was 6.41.
GELQGYDIMEP [MSH2_Y863_S860L] was tested, and the phosphorylation enrichment was 0.436.
ADYPDYKYRPR [SOX11_Y116] was tested, and the phosphorylation enrichment was 0.409.
Sequence TVVGLYQKSSL [MYH7_Y609] has a phosphorylation enrichment of 0.483.
With PGPQSYPTVTG [PAX5_Y299_I301T] the phosphorylation enrichment was 0.594.
For AVISVYDLVAV [PSEN1_Y256], the phosphorylation enrichment was 4.51.
ESLSSYRESAK [APOC2_Y47_W48R] was tested, and the phosphorylation enrichment was 0.303.
GVRYIYTIDGS [DCX_Y105] was tested, and the phosphorylation enrichment was 1.86.
ATARPYSPFII [LRP5_Y1528_R1529S_YF] was tested, and the phosphorylation enrichment was 0.633.
Work on ISSLRYELLEE [TRPC6_Y896] yielded a phosphorylation enrichment of 0.397.
Work on EADRKYEEVAC [TPM3_Y163_R168C] yielded a phosphorylation enrichment of 0.53.
Sequence LEAVSYSSRYA [RNLS_Y190] has a phosphorylation enrichment of 0.368.

These sequences were tested against Grb2 SH2 (UniProt P62993) (assay: SH2 binding enrichment of the phosphorylated peptide, bacterial display (enrichment ratio); higher = better substrate or ligand; peptides without Tyr show the background).
Grb2 SH2, sequence (P62993 whole entry, looked up): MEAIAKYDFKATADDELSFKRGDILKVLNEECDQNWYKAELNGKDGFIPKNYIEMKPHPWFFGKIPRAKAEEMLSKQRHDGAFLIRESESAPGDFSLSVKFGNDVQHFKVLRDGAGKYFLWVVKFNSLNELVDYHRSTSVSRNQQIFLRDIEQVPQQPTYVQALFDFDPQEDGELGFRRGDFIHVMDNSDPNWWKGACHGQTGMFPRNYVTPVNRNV
DFSLKYATDIP [APC_Y1183_YF] showed an SH2 binding enrichment of 0.781.
LYSNAYLSDLA [ALDH1A1_Y119_N121S] gave an SH2 binding enrichment of 0.94.
With IVAREYYSKAD [CAMK2B_Y107_E110K] the SH2 binding enrichment was 0.75.
For GIATGYLVLKE [DNMT3B_Y588], the SH2 binding enrichment was 0.744.
PLFRVYGLESL [INSR_Y94_L89P] gave an SH2 binding enrichment of 0.851.
For KVPRHYDDPGK [FOXG1_Y246], the SH2 binding enrichment was 1.26.
For EEEPVYEAEPE [HCLS1_Y360], the SH2 binding enrichment was 0.831.
Work on NSNSDYVDVLP [SH2D1B_Y127] yielded an SH2 binding enrichment of 0.835.
For DLAGRYFALKS [CKB_Y173_YF], the SH2 binding enrichment was 1.38.
GFQPEYGQPAG [SYP_Y278_D277E_YF] was tested, and the SH2 binding enrichment was 0.788.
SESSYYKSLNL [NGEF_Y289_A286S] was tested, and the SH2 binding enrichment was 0.767.
For DYGSGYPNDPK [RNASEH2A_Y210], the SH2 binding enrichment was 0.699.
KLQKFYRQNPD [EHHADH_Y683_YF] showed an SH2 binding enrichment of 0.719.
SNSAAYSGSVA [PDLIM5_Y382_T381A] was tested, and the SH2 binding enrichment was 0.774.
RRIHNYRGHLW [VHL_Y112_S111N] gave an SH2 binding enrichment of 1.01.
PLQSEYSSIST [ITGB4_Y1760_T1764S] was tested, and the SH2 binding enrichment was 0.844.
Work on STEEQYRIRQV [EFHC1_Y115] yielded an SH2 binding enrichment of 0.802.
SAAAIYTVRHP [PMP22_Y117] showed an SH2 binding enrichment of 0.9.
GELQGYDIMEP [MSH2_Y863_S860L] showed an SH2 binding enrichment of 0.851.
In the case of ADYPDYKYRPR [SOX11_Y116], the SH2 binding enrichment is reported as 0.973.
TVVGLYQKSSL [MYH7_Y609] showed an SH2 binding enrichment of 0.872.
PGPQSYPTVTG [PAX5_Y299_I301T] was tested, and the SH2 binding enrichment was 0.787.
In the case of AVISVYDLVAV [PSEN1_Y256], the SH2 binding enrichment is reported as 1.03.
In the case of ESLSSYRESAK [APOC2_Y47_W48R], the SH2 binding enrichment is reported as 0.858.
GVRYIYTIDGS [DCX_Y105] showed an SH2 binding enrichment of 0.943.
For ATARPYSPFII [LRP5_Y1528_R1529S_YF], the SH2 binding enrichment was 1.04.
Work on ISSLRYELLEE [TRPC6_Y896] yielded an SH2 binding enrichment of 0.832.
EADRKYEEVAC [TPM3_Y163_R168C] was tested, and the SH2 binding enrichment was 1.12.
LEAVSYSSRYA [RNLS_Y190] showed an SH2 binding enrichment of 0.772.

The sequences below were run against SHP2-C SH2 in the same assay as above.
In the case of DFSLKYATDIP [APC_Y1183_YF], the SH2 binding enrichment is reported as 0.737.
For LYSNAYLSDLA [ALDH1A1_Y119_N121S], the SH2 binding enrichment was 0.782.
For IVAREYYSKAD [CAMK2B_Y107_E110K], the SH2 binding enrichment was 0.749.
GIATGYLVLKE [DNMT3B_Y588] was tested, and the SH2 binding enrichment was 2.28.
In the case of PLFRVYGLESL [INSR_Y94_L89P], the SH2 binding enrichment is reported as 0.663.
KVPRHYDDPGK [FOXG1_Y246] gave an SH2 binding enrichment of 1.2.
In the case of EEEPVYEAEPE [HCLS1_Y360], the SH2 binding enrichment is reported as 0.716.
With NSNSDYVDVLP [SH2D1B_Y127] the SH2 binding enrichment was 0.43.
Sequence DLAGRYFALKS [CKB_Y173_YF] has an SH2 binding enrichment of 0.688.
In the case of GFQPEYGQPAG [SYP_Y278_D277E_YF], the SH2 binding enrichment is reported as 0.832.
Work on SESSYYKSLNL [NGEF_Y289_A286S] yielded an SH2 binding enrichment of 0.623.
For DYGSGYPNDPK [RNASEH2A_Y210], the SH2 binding enrichment was 0.589.
With KLQKFYRQNPD [EHHADH_Y683_YF] the SH2 binding enrichment was 0.647.
In the case of SNSAAYSGSVA [PDLIM5_Y382_T381A], the SH2 binding enrichment is reported as 0.559.
For RRIHNYRGHLW [VHL_Y112_S111N], the SH2 binding enrichment was 0.712.
PLQSEYSSIST [ITGB4_Y1760_T1764S] showed an SH2 binding enrichment of 0.826.
STEEQYRIRQV [EFHC1_Y115] was tested, and the SH2 binding enrichment was 0.738.
SAAAIYTVRHP [PMP22_Y117] gave an SH2 binding enrichment of 0.891.
In the case of GELQGYDIMEP [MSH2_Y863_S860L], the SH2 binding enrichment is reported as 0.534.
Sequence ADYPDYKYRPR [SOX11_Y116] has an SH2 binding enrichment of 1.18.
TVVGLYQKSSL [MYH7_Y609] gave an SH2 binding enrichment of 0.67.
Sequence PGPQSYPTVTG [PAX5_Y299_I301T] has an SH2 binding enrichment of 0.824.
Work on AVISVYDLVAV [PSEN1_Y256] yielded an SH2 binding enrichment of 1.03.
Sequence ESLSSYRESAK [APOC2_Y47_W48R] has an SH2 binding enrichment of 0.795.
GVRYIYTIDGS [DCX_Y105] was tested, and the SH2 binding enrichment was 17.4.
In the case of ATARPYSPFII [LRP5_Y1528_R1529S_YF], the SH2 binding enrichment is reported as 0.75.
For ISSLRYELLEE [TRPC6_Y896], the SH2 binding enrichment was 0.754.
With EADRKYEEVAC [TPM3_Y163_R168C] the SH2 binding enrichment was 0.925.
Work on LEAVSYSSRYA [RNLS_Y190] yielded an SH2 binding enrichment of 0.748.

What follows are sequences tested against c-Src SH2 in the same assay as above.
Work on DFSLKYATDIP [APC_Y1183_YF] yielded an SH2 binding enrichment of 0.457.
Work on LYSNAYLSDLA [ALDH1A1_Y119_N121S] yielded an SH2 binding enrichment of 1.11.
Sequence IVAREYYSKAD [CAMK2B_Y107_E110K] has an SH2 binding enrichment of 2.01.
Sequence GIATGYLVLKE [DNMT3B_Y588] has an SH2 binding enrichment of 0.717.
For PLFRVYGLESL [INSR_Y94_L89P], the SH2 binding enrichment was 0.345.
Work on KVPRHYDDPGK [FOXG1_Y246] yielded an SH2 binding enrichment of 1.56.
Sequence EEEPVYEAEPE [HCLS1_Y360] has an SH2 binding enrichment of 0.542.
In the case of NSNSDYVDVLP [SH2D1B_Y127], the SH2 binding enrichment is reported as 0.485.
For DLAGRYFALKS [CKB_Y173_YF], the SH2 binding enrichment was 0.585.
GFQPEYGQPAG [SYP_Y278_D277E_YF] showed an SH2 binding enrichment of 0.405.
SESSYYKSLNL [NGEF_Y289_A286S] was tested, and the SH2 binding enrichment was 0.678.
DYGSGYPNDPK [RNASEH2A_Y210] gave an SH2 binding enrichment of 0.319.
KLQKFYRQNPD [EHHADH_Y683_YF] was tested, and the SH2 binding enrichment was 0.418.
Work on SNSAAYSGSVA [PDLIM5_Y382_T381A] yielded an SH2 binding enrichment of 0.481.
For RRIHNYRGHLW [VHL_Y112_S111N], the SH2 binding enrichment was 0.797.
PLQSEYSSIST [ITGB4_Y1760_T1764S] showed an SH2 binding enrichment of 1.17.
STEEQYRIRQV [EFHC1_Y115] gave an SH2 binding enrichment of 0.609.
Work on SAAAIYTVRHP [PMP22_Y117] yielded an SH2 binding enrichment of 0.443.
Work on GELQGYDIMEP [MSH2_Y863_S860L] yielded an SH2 binding enrichment of 4.99.
Sequence ADYPDYKYRPR [SOX11_Y116] has an SH2 binding enrichment of 0.587.
TVVGLYQKSSL [MYH7_Y609] showed an SH2 binding enrichment of 0.619.
For PGPQSYPTVTG [PAX5_Y299_I301T], the SH2 binding enrichment was 0.513.
Work on AVISVYDLVAV [PSEN1_Y256] yielded an SH2 binding enrichment of 1.39.
With ESLSSYRESAK [APOC2_Y47_W48R] the SH2 binding enrichment was 0.556.
GVRYIYTIDGS [DCX_Y105] was tested, and the SH2 binding enrichment was 0.67.
ATARPYSPFII [LRP5_Y1528_R1529S_YF] was tested, and the SH2 binding enrichment was 0.715.
In the case of ISSLRYELLEE [TRPC6_Y896], the SH2 binding enrichment is reported as 6.86.
EADRKYEEVAC [TPM3_Y163_R168C] gave an SH2 binding enrichment of 21.8.
LEAVSYSSRYA [RNLS_Y190] gave an SH2 binding enrichment of 0.498.
